We go through three substances from PMC9669022.

The target in assay [1] is porcine brain tubulin (αβ-tubulin dimer) (porcine) (UniProt Q2XVP4).
Assay [2] has the same target. The source holds these as a separate data set.
Assay [3] shares this target. This is another data set of the same source.

In the case of Pbkinesin-8B-MD (domain or fragment), the Km of the tubulin-stimulated ATPase (unpolymerised tubulin dimer, NADH-coupled assay) in assay [1] turned out to be 7.6 µM. In assay [2], the Km of the MT-stimulated ATPase (GMPCPP-MTs, NADH-coupled assay) amounted to 2.5 µM. As to “Pbkinesin-8B-MD-L2^KIF5B (domain or fragment)”, in assay [3], the Km of the GMPCPP-MT-stimulated ATPase, fold change against WT was 2 fold. Take “Pbkinesin-8B-MD-L12^KIF5B (domain or fragment)”: in assay [3], the KmMT of the GMPCPP-MT-stimulated ATPase, fold change against WT amounted to 20 fold.
